Results on six molecules are retold here after patent CN110903391A (DONGDA BIOTECHNOLOGY SUZHOU CO LTD, dated 2020).

Assay [1] deals with 带组氨酸标签的PD-L1抗原 (UniProt Q9NZQ7). The assay can be described thus: Biacore 3000 SPR, antibody captured by anti-human IgG on CM5, PD-L1-His as analyte. In general terms: In SPR one partner is held on a chip, and binding of the other changes the refractive index at the surface.
For assay [2], the target named is T1, PD-L1 on 293T-PD-L1细胞 (human, UniProt Q9NZQ7 19-290).
T1 construct: whole, on cells; Construct not described
The assay can be described thus: FACS on 293T-PD-L1 cells.

Assay [3] deals with T2, PD-L1-ECD-hFc (human, UniProt Q9NZQ7 19-238).
T2 construct: extracellular domain; Coated on the ELISA plate; also called PD-L1-hFc; PD-L1-hFc蛋白; not shown: hFc: human Fc
The experiment in a line: ELISA, PD-L1-ECD-hFc coated.

Assay [4] concerns the target T1, PD-L1 on 293T-PD-L1细胞. The assay can be described thus: competition FACS on 293T-PD-L1 cells, competitor PD-1-biotin.
In assay [5] the target is T2, PD-L1-ECD-hFc. The assay can be described thus: competition ELISA, PD-L1-ECD-hFc coated, competitor PD-1-biotin. Background: An ELISA detects its analyte on a solid surface through an enzyme-linked reagent.

T1 sequence (Q9NZQ7 19-290): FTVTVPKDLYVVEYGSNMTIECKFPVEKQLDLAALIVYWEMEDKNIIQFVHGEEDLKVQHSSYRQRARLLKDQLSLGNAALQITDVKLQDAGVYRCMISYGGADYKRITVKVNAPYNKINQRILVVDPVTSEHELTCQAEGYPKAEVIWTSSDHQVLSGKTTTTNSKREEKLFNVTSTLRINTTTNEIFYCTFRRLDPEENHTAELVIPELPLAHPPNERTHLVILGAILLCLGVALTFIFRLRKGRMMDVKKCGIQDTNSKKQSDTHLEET
T2 sequence (Q9NZQ7 19-238): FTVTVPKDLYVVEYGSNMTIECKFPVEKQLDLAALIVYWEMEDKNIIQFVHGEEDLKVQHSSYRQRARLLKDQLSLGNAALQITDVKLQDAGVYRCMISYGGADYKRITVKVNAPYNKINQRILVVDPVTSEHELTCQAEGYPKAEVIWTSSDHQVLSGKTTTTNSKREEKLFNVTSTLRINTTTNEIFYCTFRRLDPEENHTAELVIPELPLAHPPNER

B1: 亲和力成熟的人源化6C8D8抗体(重链Seq ID 43, 轻链Seq ID 44) (antibody, V domains shown)
VH: QITLKESGPTLVKPTQTLTLTCTVSGFSLTSYDISWIRQPPGKALEWLGVIWTGGGTTYNSAFMSRLTITKDNSKNQVVLTMTNMDPVDTATYYCVRGRDWDFDYWGQGTLVTVSS
VL: EIVLTQSPDFQSVTPKEKVTITCRASQSIGTSIHWYQQKPDQSPKLLIKYVSESISGVPSRFSGSGSGTDFTLTINSLEAEDAATYYCQQSNSWPFTFGQGTKLEIK
For the molecule B1, in assay [1], the fold increase of affinity against humanized 6C8D8 was 9.25 倍 (fold).

B2: 6C8D8人源化完整抗体 (antibody, human IgG1, kappa, V domains shown)
VH: QITLKESGPTLVKPTQTLTLTCTVSGFSLTSYDISWIRQPPGKALEWLGVIWTGGGTNYNSAFMSRLTITKDNSKNQVVLTMTNMDPVDTATYYCVRGRDWDFDYWGQGTLVTVSS
VL: EIVLTQSPDFQSVTPKEKVTITCRASQSIGTSIHWYQQKPDQSPKLLIKYASESISGVPSRFSGSGSGTDFTLTINSLEAEDAATYYCQQSNSWPFTFGQGTKLEIKR
notes: Humanized IgG1; expressed in 293 cells; also called hu6C8D8; 人源化的6C8D8抗体
The term EC50 denotes the concentration giving half of the maximal effect. A low value points to greater potency. Usually IC50 stands for the concentration needed to halve the response being measured. High values mean weaker potency, low ones greater potency. Consider B2, for which the EC50 in assay [2] was determined as 0.0413 µg/mL; in assay [3] it was 2.24 ng/mL. Further, the half-maximal inhibitory concentration (IC50) in assay [4] was 0.0437 µg/mL; in assay [5], 0.139 µg/mL.

B3: 6F9B1A6人源化完整抗体 (antibody, human IgG1, kappa, V domains shown)
VH: QVQLVQSGAEVKKPGSSVKVSCKASGYTFIGYTVHWVRQAPGQGLEWIGWFYPGSGSIKYNEKFKDRATLTADKSTSTVYMELSSLRSEDTAVYYCARHGTGKFNYFDVWGQGTTVTVSS
VL: DIQLTQSPSFLSASVGDRVTITCRASSTVSYMHWYQQKPGKAPKPWIYATFNLASGVPSRFSGSGSGTEYTLTISSLQPEDFATYYCQPWSSYPLTFGQGTKLEIKR
notes: Humanized IgG1; expressed in 293 cells; also called hu6F9B1A6; 人源化的6F9B1A6抗体
For the molecule B3, the EC50 in assay [2] was determined as 0.0412 µg/mL; in assay [3], 4.48 ng/mL. Also, the results for the IC50 in assay [4] and in assay [5] were 0.0365 µg/mL and 0.108 µg/mL, respectively.

B4: 亲和力成熟的人源化10E9C7G2抗体(重链Seq ID 48, 轻链Seq ID 50) (antibody, V domains shown)
VH: QVQLQQSGPGLVKPSQTLSLTCAISGDSVSSGYWNWIRQSPSRGLEYMGYISYTGSTYYSLSLKSRITINRDTSKNQYSLQLNSVTPEDTAVYYCARGDYGSDWPPWFAYWGQGTTVTVSS
VL: DIQMTQSPSSLSASVGDRVTITCSASISISSNSLQWYQQKPGKAPKLLIYRTTNLPSGVPSRFSGSGSGTDYTLTISSLQPEDFATYYCQQSGGLPLTFGQGTKLEIK
Take B4: the fold increase of affinity against humanized 10E9C7G2 in assay [1] is 7.2 倍 (fold).

B5: 10E9C7G2人源化完整抗体 (antibody, human IgG1, kappa, V domains shown)
VH: QVQLQQSGPGLVKPSQTLSLTCAISGDSITSGYWNWIRQSPSRGLEYMGYISYTGSTYYNLSLKSRITINRDTSKNQYSLQLNSVTPEDTAVYYCARGDYGSDWPPWFAYWGQGTTVTVSS
VL: DIQMTQSPSSLSASVGDRVTITCSASSSISSNSLQWYQQKPGKAPKLLIYRTTNLPSGVPSRFSGSGSGTDYTLTISSLQPEDFATYYCQQSSGLPLTFGQGTKLEIKR
notes: Humanized IgG1; expressed in 293 cells; also called hu10E9C7G2; 人源化的10E9C7G2抗体
On to B5, for which the EC50 in assay [2] came out at 0.0392 µg/mL; in assay [3], 0.684 ng/mL. In addition, the IC50 in assay [4] came out at 0.0327 µg/mL; in assay [5] it was 0.147 µg/mL.

B6: 亲和力成熟的人源化10E9C7G2抗体(重链Seq ID 49, 轻链Seq ID 50) (antibody, V domains shown)
VH: QVQLQQSGPGLVKPSQTLSLTCAISGDSVSSGYWNWIRQSPSRGLEYMGYISYTGSTYYDLSLKSRITINRDTSKNQYSLQLNSVTPEDTAVYYCARGDYGSDWPPWFAYWGQGTTVTVSS
VL: DIQMTQSPSSLSASVGDRVTITCSASISISSNSLQWYQQKPGKAPKLLIYRTTNLPSGVPSRFSGSGSGTDYTLTISSLQPEDFATYYCQQSGGLPLTFGQGTKLEIK
As to B6, the fold increase of affinity against humanized 10E9C7G2 in assay [1] was 4.8 倍 (fold).
